Source: paper PMC11260014 (JTO Clinical and Research Reports, 2024)

Tests used:
[1] = test system: ALK-positive NSCLC; conditions: monotherapy; phase 2 study, subgroups with prior ALK TKI treatment; cited from earlier work
[2] = Pharmacokinetics from blood samples; type: in vivo, human; conditions: serum, in combination with lorlatinib or crizotinib

Row | Compound | Median PFS [1] | Ctrough level at steady state ([2]; at cycle 2) | Cmax on cycle 1 day 1 versus cycle 2 day 1 [2]
1 | C[C@H]1Oc2cc(cnc2N)-c2c(nn(C)c2C#N)CN(C)C(=O)c2ccc(F)cc21 [Lorlatinib, lorlatinib] | 6.9–7.3 mo |  | 
2 | avelumab |  | above 10 μg/mL | similar
